Two molecules from publication doi:10.1101/2020.06.23.167452v1 (biorxiv, 2020) can be followed below.

Series [1] deals with T1, TcAK (arginine kinase from Trypanosoma cruzi) (Trypanosoma cruzi, UniProt O96507).
T1 sequence (O96507 1-357): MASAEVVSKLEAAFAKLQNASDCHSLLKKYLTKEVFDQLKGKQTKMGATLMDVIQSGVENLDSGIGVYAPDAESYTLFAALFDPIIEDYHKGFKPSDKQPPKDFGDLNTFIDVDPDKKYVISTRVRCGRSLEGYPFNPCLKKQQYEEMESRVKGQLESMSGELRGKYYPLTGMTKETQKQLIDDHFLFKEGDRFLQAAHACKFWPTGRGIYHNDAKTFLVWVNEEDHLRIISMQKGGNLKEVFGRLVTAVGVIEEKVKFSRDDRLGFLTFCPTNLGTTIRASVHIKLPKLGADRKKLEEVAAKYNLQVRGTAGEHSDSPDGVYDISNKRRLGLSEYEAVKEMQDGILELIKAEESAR
The series is described as follows: coupled pyruvate kinase / lactate dehydrogenase assay, NADH at […] nm. Type of series: biochemical.

Substrate in series [2]: N=C(N)NCCC[C@H](N)C(=O)O
The series is described as follows: purified protein. Conditions: no delphinidin, ATP 1.5 mM, 1.5 mM MgCl2, Tris-HCl pH 8.2.

Substrate in series [3]: Nc1ncnc2c1ncn2[C@@H]1O[C@H](COP(=O)(O)OP(=O)(O)OP(=O)(O)O)[C@@H](O)[C@H]1O
The series is described as follows: purified protein. The settings on record: no delphinidin, arginine 10 mM, 1.5 mM MgCl2, Tris-HCl pH 8.2.

As a reminder, the Ki is a measure of affinity in units of concentration, obtained from inhibition or displacement. Low values mean a stronger hold on the target, high ones a looser hold on the target. In series [1], `Oc1cc(O)c2cc(O)c(-c3cc(O)c(O)c(O)c3)[o+]c2c1` [delphinidin] displayed a Ki of 1.32 µM.

B1: TcAK (arginine kinase from Trypanosoma cruzi) (Trypanosoma cruzi) (protein)
chain: MASAEVVSKLEAAFAKLQNASDCHSLLKKYLTKEVFDQLKGKQTKMGATLMDVIQSGVENLDSGIGVYAPDAESYTLFAALFDPIIEDYHKGFKPSDKQPPKDFGDLNTFIDVDPDKKYVISTRVRCGRSLEGYPFNPCLKKQQYEEMESRVKGQLESMSGELRGKYYPLTGMTKETQKQLIDDHFLFKEGDRFLQAAHACKFWPTGRGIYHNDAKTFLVWVNEEDHLRIISMQKGGNLKEVFGRLVTAVGVIEEKVKFSRDDRLGFLTFCPTNLGTTIRASVHIKLPKLGADRKKLEEVAAKYNLQVRGTAGEHSDSPDGVYDISNKRRLGLSEYEAVKEMQDGILELIKAEESAR
For orientation: Km means the substrate concentration at which the rate is half of its maximum. As to B1, the Km amounted to 810 ± 330 µM in series [2] and 200 ± 330 µM in series [3].
